Measured values published in PMC9482650, “Quantitative fragmentomics allow affinity mapping of interactomes” (Nature Communications, 2022).

T1: NHERF3_4, Q5T2W1
T1 sequence (Q5T2W1 373-468, limits assumed, looked up): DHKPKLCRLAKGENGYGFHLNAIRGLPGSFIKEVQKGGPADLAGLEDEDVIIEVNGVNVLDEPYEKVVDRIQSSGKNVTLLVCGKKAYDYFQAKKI

T2: PDZD2_2, O15018
T2 sequence (O15018 329-429, limits assumed, looked up): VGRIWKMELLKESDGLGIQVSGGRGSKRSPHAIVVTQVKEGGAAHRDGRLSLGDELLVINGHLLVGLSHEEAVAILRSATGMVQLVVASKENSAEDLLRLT

T3: LIN7A, O14910
T3 sequence (O14910 103-200, limits assumed, looked up): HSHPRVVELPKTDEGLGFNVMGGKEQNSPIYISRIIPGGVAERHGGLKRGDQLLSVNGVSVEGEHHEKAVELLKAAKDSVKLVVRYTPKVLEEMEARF

T4: MPP6, Q9NZW5
T4 sequence (Q9NZW5 125-219, limits assumed, looked up): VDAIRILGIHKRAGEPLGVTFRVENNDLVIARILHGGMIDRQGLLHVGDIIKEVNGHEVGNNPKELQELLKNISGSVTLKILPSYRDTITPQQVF

T5: PCLO, Q9Y6V0
T5 sequence (Q9Y6V0 4491-4600, limits assumed, looked up): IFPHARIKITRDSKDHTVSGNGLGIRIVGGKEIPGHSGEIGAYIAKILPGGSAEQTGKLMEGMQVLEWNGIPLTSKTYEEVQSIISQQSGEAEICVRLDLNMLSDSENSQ

T6: MPDZ_5, O75970
T6 sequence (O75970 695-796, limits assumed, looked up): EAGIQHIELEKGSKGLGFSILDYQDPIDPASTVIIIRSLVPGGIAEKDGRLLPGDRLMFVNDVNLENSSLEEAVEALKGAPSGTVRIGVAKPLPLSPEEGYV

T7: DLG3_1, Q92796
T7 sequence (Q92796 125-227, limits assumed, looked up): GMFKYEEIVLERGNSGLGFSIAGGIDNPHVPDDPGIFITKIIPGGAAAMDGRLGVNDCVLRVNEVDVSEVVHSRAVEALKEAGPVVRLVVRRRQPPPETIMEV

T8: SNTA1, Q13424
T8 sequence (Q13424 82-180, limits assumed, looked up): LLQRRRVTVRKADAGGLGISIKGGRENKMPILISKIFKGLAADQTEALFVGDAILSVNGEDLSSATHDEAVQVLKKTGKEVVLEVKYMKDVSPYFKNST

T9: SIPA1L2, Q9P2F8
T9 sequence (Q9P2F8 945-1036, limits assumed, looked up): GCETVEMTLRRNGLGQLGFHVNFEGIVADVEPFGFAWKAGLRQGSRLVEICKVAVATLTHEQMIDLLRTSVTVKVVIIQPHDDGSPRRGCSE

T10: DFNB31_3, Q9P202
T10 sequence (Q9P202 811-907, limits assumed, looked up): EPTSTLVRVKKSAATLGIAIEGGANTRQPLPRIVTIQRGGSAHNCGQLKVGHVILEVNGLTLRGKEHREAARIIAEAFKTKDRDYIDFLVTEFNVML

T11: NHERF3_1, Q5T2W1
T11 sequence (Q5T2W1 4-100, limits assumed, looked up): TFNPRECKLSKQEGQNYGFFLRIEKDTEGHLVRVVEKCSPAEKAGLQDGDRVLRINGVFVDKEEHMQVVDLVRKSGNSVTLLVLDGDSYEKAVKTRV


What was measured:
Test in all cases: holdup assay
Set-up in all cases: key: below the threshold = too weak to quantify, mostly under pKd 3.1 to 4
Details in all cases: plain residues with an end cap or a label only (N-terminal biotin on a linker: ado-ado)
NHERF3_4, Q5T2W1 = target: T1, NHERF3_4, Q5T2W1
GOPC, Q9HD26 = target: GOPC, Q9HD26
GRID2IP_2, A4D2P6 = target: GRID2IP_2, A4D2P6
Sequence of GRID2IP_2, A4D2P6 (A4D2P6 272-370): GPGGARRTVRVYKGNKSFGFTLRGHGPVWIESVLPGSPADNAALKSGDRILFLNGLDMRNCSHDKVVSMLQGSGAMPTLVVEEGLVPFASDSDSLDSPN

DLG1_1, Q12959 = target: DLG1_1, Q12959
NHERF2_2, Q15599 = target: NHERF2_2, Q15599
Sequence of NHERF2_2, Q15599 (Q15599 142-238): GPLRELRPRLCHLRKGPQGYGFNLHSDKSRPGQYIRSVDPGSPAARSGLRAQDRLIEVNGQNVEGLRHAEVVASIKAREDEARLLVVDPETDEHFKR

PDZD2_2, O15018 = target: T2, PDZD2_2, O15018
DLG1_2, Q12959 = target: DLG1_2, Q12959
LIN7A, O14910 = target: T3, LIN7A, O14910
MPP6, Q9NZW5 = target: T4, MPP6, Q9NZW5
DLG1_3, Q12959 = target: DLG1_3, Q12959
FRMPD2_3, Q68DX3 = target: FRMPD2_3, Q68DX3
Sequence of FRMPD2_3, Q68DX3 (Q68DX3 1073-1166): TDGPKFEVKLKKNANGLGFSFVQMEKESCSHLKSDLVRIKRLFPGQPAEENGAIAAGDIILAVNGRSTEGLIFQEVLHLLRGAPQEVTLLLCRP

GRIP2_6, Q9C0E4 = target: GRIP2_6, Q9C0E4
Sequence of GRIP2_6, Q9C0E4 (Q9C0E4 648-740): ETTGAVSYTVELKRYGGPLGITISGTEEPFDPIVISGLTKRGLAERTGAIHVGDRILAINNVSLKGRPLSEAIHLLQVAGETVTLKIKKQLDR

PCLO, Q9Y6V0 = target: T5, PCLO, Q9Y6V0
MPDZ_5, O75970 = target: T6, MPDZ_5, O75970
DLG3_1, Q92796 = target: T7, DLG3_1, Q92796
IL16_3, Q14005 = target: IL16_3, Q14005
Sequence of IL16_3, Q14005 (Q14005 1107-1207): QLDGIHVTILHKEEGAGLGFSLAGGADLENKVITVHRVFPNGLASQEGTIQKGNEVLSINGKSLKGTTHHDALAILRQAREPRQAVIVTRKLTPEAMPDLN

SNTA1, Q13424 = target: T8, SNTA1, Q13424
MAGI2_2, Q86UL8 = target: MAGI2_2, Q86UL8
Sequence of MAGI2_2, Q86UL8 (Q86UL8 410-522): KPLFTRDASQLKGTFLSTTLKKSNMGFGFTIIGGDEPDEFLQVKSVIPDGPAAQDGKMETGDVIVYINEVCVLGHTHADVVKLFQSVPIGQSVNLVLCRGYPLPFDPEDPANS

GRIP2_5, Q9C0E4 = target: GRIP2_5, Q9C0E4
Sequence of GRIP2_5, Q9C0E4 (Q9C0E4 544-642): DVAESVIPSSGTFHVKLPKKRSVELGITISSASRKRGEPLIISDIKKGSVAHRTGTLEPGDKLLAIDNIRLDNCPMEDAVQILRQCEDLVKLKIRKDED

SIPA1L2, Q9P2F8 = target: T9, SIPA1L2, Q9P2F8
MAST1, Q9Y2H9 = target: MAST1, Q9Y2H9
Sequence of MAST1, Q9Y2H9 (Q9Y2H9 962-1065): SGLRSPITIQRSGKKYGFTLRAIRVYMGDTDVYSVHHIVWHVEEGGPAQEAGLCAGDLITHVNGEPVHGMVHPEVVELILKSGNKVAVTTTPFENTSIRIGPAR

CASK, O14936 = target: CASK, O14936
Sequence of CASK, O14936 (O14936 487-570): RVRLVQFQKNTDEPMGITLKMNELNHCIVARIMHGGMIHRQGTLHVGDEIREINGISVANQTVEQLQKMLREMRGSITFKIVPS

DFNB31_3, Q9P202 = target: T10, DFNB31_3, Q9P202
HTRA2, O43464 = target: HTRA2, O43464
Sequence of HTRA2, O43464 (O43464 355-458): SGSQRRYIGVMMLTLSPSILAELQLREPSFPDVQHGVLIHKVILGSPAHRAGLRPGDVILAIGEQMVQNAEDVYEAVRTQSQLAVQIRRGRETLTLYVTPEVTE

FRMPD3, Q5JV73 = target: FRMPD3, Q5JV73
Sequence of FRMPD3, Q5JV73 (Q5JV73 12-100): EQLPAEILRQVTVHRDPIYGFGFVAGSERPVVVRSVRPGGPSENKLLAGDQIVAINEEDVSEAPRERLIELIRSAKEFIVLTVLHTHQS

GRASP, Q7Z6J2 = target: GRASP, Q7Z6J2
Sequence of GRASP, Q7Z6J2 (Q7Z6J2 96-193): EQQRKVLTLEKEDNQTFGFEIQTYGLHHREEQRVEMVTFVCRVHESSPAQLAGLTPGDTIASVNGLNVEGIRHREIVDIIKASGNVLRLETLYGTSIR

NHERF3_1, Q5T2W1 = target: T11, NHERF3_1, Q5T2W1

Binder	pKd (NHERF3_4, Q5T2W1)	pKd (GOPC, Q9HD26)	pKd (GRID2IP_2, A4D2P6)	pKd (DLG1_1, Q12959)	pKd (NHERF2_2, Q15599)	pKd (PDZD2_2, O15018)	pKd (DLG1_2, Q12959)	pKd (LIN7A, O14910)	pKd (MPP6, Q9NZW5)	pKd (DLG1_3, Q12959)	pKd (FRMPD2_3, Q68DX3)	pKd (GRIP2_6, Q9C0E4)	pKd (PCLO, Q9Y6V0)	pKd (MPDZ_5, O75970)	pKd (DLG3_1, Q92796)	pKd (IL16_3, Q14005)	pKd (SNTA1, Q13424)	pKd (MAGI2_2, Q86UL8)	pKd (GRIP2_5, Q9C0E4)	pKd (SIPA1L2, Q9P2F8)	other results
QLKSGRDSTV [TMEM178A, Q8NBL3]	3.58	3.57	3.54	4.11	3.55	4.32	4.64	below the threshold	3.8	3.85	below the threshold	3.49	below the threshold	3.56	3.82	below the threshold	3.88	4	below the threshold	below the threshold	pKd (MAST1, Q9Y2H9): 4.02; pKd (CASK, O14936): 3.54; pKd (DFNB31_3, Q9P202): below the threshold; pKd (HTRA2, O43464): 3.65; pKd (FRMPD3, Q5JV73): below the threshold; pKd (GRASP, Q7Z6J2): 3.56; pKd (NHERF3_1, Q5T2W1): below the threshold
TKEIPNCTSV [SORCS3, Q9UPU3]	below the threshold	3.95	4.29	4.22	3.94	4.72	4.43	below the threshold	below the threshold	4.14	below the threshold	below the threshold	below the threshold	below the threshold	3.64	below the threshold	4.16	4.29	below the threshold	3.49	pKd (MAST1, Q9Y2H9): 4.99; pKd (CASK, O14936): below the threshold; pKd (DFNB31_3, Q9P202): 4.05; pKd (HTRA2, O43464): below the threshold; pKd (FRMPD3, Q5JV73): below the threshold; pKd (GRASP, Q7Z6J2): 4.74; pKd (NHERF3_1, Q5T2W1): 4.36
